Laboratory results as given in the supplement of paper PMC12338614.
± gives the uncertainty stated by the source.

B1: library; numbered along this chain (parent)
chain: MEVVDPQQLGMFTEGELMSVGMDTFIHRIDSTEVIYQPRRKRAKLIGKYLMGDLLGEGSYGKVKEVLDSETLCRRAVKILKKKKLRRIPNGEANVKKEIQLLRRLRHKNVIQLVDVLYNEEKQKMYMVMEYCVCGMQEMLDSVPEKRFPVCQAHGYFCQLIDGLEYLHSQGIVHKDIKPGNLLLTTGGTLKISDLGVAEALHPFAADDTCRTSQGSPAFQPPEIANGLDTFSGFKVDIWSAGVTLYNITTGLYPFEGDNIYKLFENIGKGSYAIPGDCGPPLSDLLKGMLEYEPAKRFSIRQIRQHSWFRKKHPPAEAPVPIPPSPDTKDRWRSMTVVPYLEDLHGADEDEDLFDIEDDIIYTQDFTVPGQVPEEEASHNGQRRGLPKAVCMNGTEAAQLSTKSRAEGRAPNPARKACSASSKIRRLSACKQQ

Variants of: B1
Experiment: STK11 functional score (HeLa growth suppression), rescaled enrichment; synonymous median = 1, nonsense median = 0 (normalised score)
Details: with HeLa; variant type: missense
Summary of the method: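 The values are functional scores: wild-type-corrected log ratios of post- versus pre-selection abundance, rescaled to synonymous and nonsense medians, merged over codons and replicate transfections, and carrying bootstrapped error. They derive from codon-randomised (POPCode), codon-optimised STK11 libraries that Bxb1 integrated at an AAVS1 landing pad in HeLa, with three transfections for each of three regions. Sequencing of tiled gDNA amplicons ran on NextSeq, at ~2 million reads per tile.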

Row | Variant | STK11 functional score
1 | MEVVDPQQLGMFTEGELMSVGMDTFIHRIDSTEVIYQPRRKRAKLIGKYLMGDLLGEGSYGKVKEVLDSETLCRRAVKILKKKKLRRIPNGEANVKKEIQLLRRLRHKNVIQLVDVLYNEEKQKMYMVMEYCVCGMQEMLDSVPEKRFPVCQAHGYFCQLIDGLEYLHSQGIVHKDIKPGNLLLTTGGTLKISDLGVAEALHPFAADDTCRTSQGSPAFQPPEIANGLDTFSGFKVDIWSAGVTLYNITTGLYPFEGDNIYKLFENIGKGSYAIPGDCGPPLSDLLKGMLEYEPAKRFSIRQIRQHSWFRKKHPPAEAPVPIPPSPDTKDRWRSMTVVPYLEDLHGADEDEDLFDIEDDIIYTQDFTVPGQVPEEEASHNGWRRGLPKAVCMNGTEAAQLSTKSRAEGRAPNPARKACSASSKIRRLSACKQQ [Q382W] | 1.06 ± 0.094
2 | MEVVDPQQLGMFTEGELMSVGMDTFIHRIDSTEVIYQPRRKRAKLIGKYLMGDLLGEGSYGKVKEVLDSETLCRRAVKILKKKKLRRIPNGEANVKKEIQLLRRLRHKNVIQLVDVLYNEEKQKMYMVMEYCVCGMQEMLDSVPEKRFPVCQAHGYFCQLIDGLEYLHSQGIVHKDIKPGNLLLTTGGTLKISDLGVAEALHPFAADDTCRTSQGFPAFQPPEIANGLDTFSGFKVDIWSAGVTLYNITTGLYPFEGDNIYKLFENIGKGSYAIPGDCGPPLSDLLKGMLEYEPAKRFSIRQIRQHSWFRKKHPPAEAPVPIPPSPDTKDRWRSMTVVPYLEDLHGADEDEDLFDIEDDIIYTQDFTVPGQVPEEEASHNGQRRGLPKAVCMNGTEAAQLSTKSRAEGRAPNPARKACSASSKIRRLSACKQQ [S216F] | -0.0894 ± 0.09
3 | MEVVDPQQLGMFTEGELMSVGMDTFIHRIDSTEVIYQPRRKRAKLIGKYLMGDLLGEGSYGKVKEVLDSETLCRRAVKILKKKKLRRIPNGEANVKKEIQLLRRLRHKNVIQLVDVLYNEEKQKMYMVMEYCVCGMQEMLDSVPEKRFPVCQAHGYFCQLIDGLEYLHSQGIVHKDIKPGNLLLTTGGPLKISDLGVAEALHPFAADDTCRTSQGSPAFQPPEIANGLDTFSGFKVDIWSAGVTLYNITTGLYPFEGDNIYKLFENIGKGSYAIPGDCGPPLSDLLKGMLEYEPAKRFSIRQIRQHSWFRKKHPPAEAPVPIPPSPDTKDRWRSMTVVPYLEDLHGADEDEDLFDIEDDIIYTQDFTVPGQVPEEEASHNGQRRGLPKAVCMNGTEAAQLSTKSRAEGRAPNPARKACSASSKIRRLSACKQQ [T189P] | 1.12 ± 0.41
4 | MEVVDPQQLGMFTEGELMSVGMDTFIHRIDSTEVIYQPRRKRAKLIGKYLMGDLLGEGSYGKVKEVLDSETLCRRAVKILKKKKLRRIPNGEANVKKEIQLLRRLRHKNVIQLVDVLYNEEKQKMYMVMEYCVCGMQEMLDSVPEKRFPVCQAHGYFCQLIDGLEYLHSQGIVHKDIKPGNLLLTTGGTLKISDLGVAEALHPFAADDTCRTSQGSPAFQPPEIANGLDTFSGFKVDIWSAGVTLYNITTGLYPFEGDNIYKLFENIGKGSYAIPGDCGPPLSDLLKGALEYEPAKRFSIRQIRQHSWFRKKHPPAEAPVPIPPSPDTKDRWRSMTVVPYLEDLHGADEDEDLFDIEDDIIYTQDFTVPGQVPEEEASHNGQRRGLPKAVCMNGTEAAQLSTKSRAEGRAPNPARKACSASSKIRRLSACKQQ [M289A] | 0.107 ± 0.21
5 | MEVVDPQQLGMFTEGELMSVGMDTFIHRIDSTEVIYQPRRKRAKLIGKYLMGDLLGEGSYGKVKEVLDSETLCRRAVKILKKKKLRRIPNGEANVKKEIQLLRRLRHKNVIQLVDVLYNEEKQKMYMVMEYCVCGMQEMLDSVPEKRFPVCQAHGYFCQLIDGLEYLHSQGIVHKDIKPGNLLLTTGGTLKISDLGVAEALHPFAADDTCRTSQGSPAFQPPEIANGLDTFSGFKVDIWSAGVTLYNITTGLYPFEGDNIYKLFENIGKGSYAIPGDCGPPLSDLLKGMLEYEPAKRFSIRQIRQHSWFRKKHPPAEAPVPIPPSPPTKDRWRSMTVVPYLEDLHGADEDEDLFDIEDDIIYTQDFTVPGQVPEEEASHNGQRRGLPKAVCMNGTEAAQLSTKSRAEGRAPNPARKACSASSKIRRLSACKQQ [D327P] | 1.59 ± 0.27
6 | MEVVDPQQLGMFTEGELMSVGMDTFIHRIDSTEVIYQPRRKRAKLIGKYLMGDLLGEGSYGKVKEVLDSETLCRRAVKILKKKKLRRIPNGEANVKKECQLLRRLRHKNVIQLVDVLYNEEKQKMYMVMEYCVCGMQEMLDSVPEKRFPVCQAHGYFCQLIDGLEYLHSQGIVHKDIKPGNLLLTTGGTLKISDLGVAEALHPFAADDTCRTSQGSPAFQPPEIANGLDTFSGFKVDIWSAGVTLYNITTGLYPFEGDNIYKLFENIGKGSYAIPGDCGPPLSDLLKGMLEYEPAKRFSIRQIRQHSWFRKKHPPAEAPVPIPPSPDTKDRWRSMTVVPYLEDLHGADEDEDLFDIEDDIIYTQDFTVPGQVPEEEASHNGQRRGLPKAVCMNGTEAAQLSTKSRAEGRAPNPARKACSASSKIRRLSACKQQ [I99C] | 1.57 ± 0.18
7 | MEVVDPQQLGMFTEGELMSVGMDTFIHRIDSTEVIYQPRRKRAKLIGKYLMGDLLGEGSYGKVKEVLDSETLCRRAVKILKKKKLRRIPNGEANVKKEIQLLRRLRHKNVIQLVDVLYNEEKQKMYMVMEYCVCGMQEMLDSVPEKRFPVCQAHGYFCQLIDGLEYLHSQGIVHKDIKPGNLLLTTGGTLKISDLGVAEALHPFAADDTCRTSQGSPAFQPPEIANGLDTFSGFKVDIWSAGVTLYNITTGLYPFEGDNIYKLFENIGKGSYAIPGDCGPPLSDLLKGMLEYEPAKRFSIRQIRQHSWFRKKHPPAEAPVPIPPSPDTKDRWRSMTVVPYLEDLHGADIDEDLFDIEDDIIYTQDFTVPGQVPEEEASHNGQRRGLPKAVCMNGTEAAQLSTKSRAEGRAPNPARKACSASSKIRRLSACKQQ [E349I] | 1.05 ± 0.55
8 | MEVVDPQQLGMFTEGELMSVGMDTFIHRIDSTEVIYQPRRKRAKLIGKYLMGDLLGEGSYGKVKEVLDSETLCRRAVKILKKKKLRRIPNGEANVKKEIQLLRRLRHKNVIQLVDVLYNEEKQKMYMVMEYCVCGMQEMLDSVPEKRFPVCQAHGYFCQLIDGLEYLHSQGIVHKDIKPGNLLLTTGGTLKISDLGVAEALHPFAADDTCRTSQGSPAFQPPEIANGLDTFSGFKVDIWSAGVTLYNITTGLYPFEGDNIYKLFENIGKGSYAIPGDCGPPLSDLLKGMLEYEPAKRFSIRQIRQHSWFRKKHPPAEAPVPIPPSPDTKDRWRSMTVVPYLEDLHGADEDEDLFDIEDDIIYTQDFTVPGQVPEEEASHNGQDRGLPKAVCMNGTEAAQLSTKSRAEGRAPNPARKACSASSKIRRLSACKQQ [R383D] | 1.49 ± 0.32
9 | MEVVDPQQLGMFTEGELMSVGMDTFIHLIDSTEVIYQPRRKRAKLIGKYLMGDLLGEGSYGKVKEVLDSETLCRRAVKILKKKKLRRIPNGEANVKKEIQLLRRLRHKNVIQLVDVLYNEEKQKMYMVMEYCVCGMQEMLDSVPEKRFPVCQAHGYFCQLIDGLEYLHSQGIVHKDIKPGNLLLTTGGTLKISDLGVAEALHPFAADDTCRTSQGSPAFQPPEIANGLDTFSGFKVDIWSAGVTLYNITTGLYPFEGDNIYKLFENIGKGSYAIPGDCGPPLSDLLKGMLEYEPAKRFSIRQIRQHSWFRKKHPPAEAPVPIPPSPDTKDRWRSMTVVPYLEDLHGADEDEDLFDIEDDIIYTQDFTVPGQVPEEEASHNGQRRGLPKAVCMNGTEAAQLSTKSRAEGRAPNPARKACSASSKIRRLSACKQQ [R28L] | 0.637 ± 0.15
10 | MEVVDPQQLGMFTEGELMSVGMDTFIHRIDSTEVIYQPRRKRAKLIGKYLMGDLLGEGSYGKVKEVLDSETLCRRAVKILKKKKLRRIPNGEANVKKEIQLLRRLRHKNVIQLVDVLYNEEKQKMYMVMEYCVCGMQEMLDSVPEKRFPVCQAHGYFCQLIDGLEYLHSQGIVHKDIKPGNLLLTTGGTLKISDLGVAEALHPFAADDTCRTSQGSPAFQPPEIANGLDTFSGFKVDIWSAGVTLYNITTGLYPFEGDNIYKLFENIGKGSYAIPGDCGPPLSDLLKGMLEYEPAKRFSIRQIRQHSWFRKKHPPAEAPVPIPPSPDTKDRWRSMTVVPYLEDLHGADEDEDLFDIEDDIIYTQDFTVPGQVPEEEASYNGQRRGLPKAVCMNGTEAAQLSTKSRAEGRAPNPARKACSASSKIRRLSACKQQ [H379Y] | 1.39 ± 0.47
11 | MEVVDPQQLGMFTEGELMSVGMDTFIHRIDSTEVIYQPRRKRAKLIGKYLMGDLLGEGSYGKVKEVLDSETLCRRAVKILKKKKLRRIPNGEANVKKEIQLLRRLRHKNVIQLVDVLYNEEKQKMYMVMEYCVCGMQEMLDSVPEKRFPVCQAHGYFCQLIDGLEYLHSQGIVHKDIKPGNLLLTTGGTLKISDLGVAEALHPFAADDTCRTSQGSPAFQPPEIANGLDTFSGFKVDIWSAGVTLYNITTGLYPFEGDNIYKLFENIGKGSYAIPGDCGPPLSDLLKGMLEYEPAKRFSIRQIRQHSWFRKKHPPAEAPTPIPPSPDTKDRWRSMTVVPYLEDLHGADEDEDLFDIEDDIIYTQDFTVPGQVPEEEASHNGQRRGLPKAVCMNGTEAAQLSTKSRAEGRAPNPARKACSASSKIRRLSACKQQ [V320T] | 1.57 ± 0.27
12 | MEVVDPQQLGMFTEGELMSVGMDTFIHRIDSTEVIYQPRRKRAKLIGKYLMGDLLGEGSYGKVKEVLDSETLCRRAVKILKKKKLRRIPNGEANVKKEIQLLRRLRHKNVIQLVDVLYNEEKQKMYMVMEYCVCGMQEMLDSVPEKRFPVCQAHGYFCQLIDGLEYLHSQGIVHKDIKPGNLLLTTGGTLKISDLGVAEALHPFAADDTCRTSQGSPAFQPPEIANGLDTFSGFKVDIWSAGVTLYNITTGLYPFEGDNIYKLFENIGKGSYAMPGDCGPPLSDLLKGMLEYEPAKRFSIRQIRQHSWFRKKHPPAEAPVPIPPSPDTKDRWRSMTVVPYLEDLHGADEDEDLFDIEDDIIYTQDFTVPGQVPEEEASHNGQRRGLPKAVCMNGTEAAQLSTKSRAEGRAPNPARKACSASSKIRRLSACKQQ [I274M] | 0.974 ± 0.14
13 | MEVVDPQQLGMFTEGELMSVGMDTFIHRIDSTEVIYQPRRKRAKLIGKYLMGDLLGEGSYGKVKEVLDSETLCRRAVKILKKKKLRRIPNGEANVKKEIQLLRRLRHKNVIQLVDVLYNEEKQKMYMVMEYCVCGMQEMLDSVPEKRFPVCQAHGYFCQLIDGLEYLHSQGIVHGDIKPGNLLLTTGGTLKISDLGVAEALHPFAADDTCRTSQGSPAFQPPEIANGLDTFSGFKVDIWSAGVTLYNITTGLYPFEGDNIYKLFENIGKGSYAIPGDCGPPLSDLLKGMLEYEPAKRFSIRQIRQHSWFRKKHPPAEAPVPIPPSPDTKDRWRSMTVVPYLEDLHGADEDEDLFDIEDDIIYTQDFTVPGQVPEEEASHNGQRRGLPKAVCMNGTEAAQLSTKSRAEGRAPNPARKACSASSKIRRLSACKQQ [K175G] | 0.847 ± 0.18
14 | MEVVDPQQLGMFTEGELMSVGMDTFIHRIDSTEVIYQPRRKRAKLIGKYLMGDLLGEGSYGKVKEVLDSETLCRRAVKILKKKKLRRIPNGEANVKKEIQLLRILRHKNVIQLVDVLYNEEKQKMYMVMEYCVCGMQEMLDSVPEKRFPVCQAHGYFCQLIDGLEYLHSQGIVHKDIKPGNLLLTTGGTLKISDLGVAEALHPFAADDTCRTSQGSPAFQPPEIANGLDTFSGFKVDIWSAGVTLYNITTGLYPFEGDNIYKLFENIGKGSYAIPGDCGPPLSDLLKGMLEYEPAKRFSIRQIRQHSWFRKKHPPAEAPVPIPPSPDTKDRWRSMTVVPYLEDLHGADEDEDLFDIEDDIIYTQDFTVPGQVPEEEASHNGQRRGLPKAVCMNGTEAAQLSTKSRAEGRAPNPARKACSASSKIRRLSACKQQ [R104I] | 1.23 ± 0.25
